B1: NKp46-3 (antibody, V domains shown)
VH: EVQLQQSGPELVKPGASVKISCKTSGYTFTEYTMHWVKQSHGKSLEWIGGISPNIGGTSYNQKFKGKATLTVDKSSSTAYMELRSLTSEDSAVYYCARRGGSFDYWGQGTTLTVSS
VL: DIVMTQSPATLSVTPGDRVSLSCRASQSISDYLHWYQQKSHESPRLLIKYASQSISGIPSRFSGSGSGSDFTLSINSVEPEDVGVYYCQNGHSFPLTFGAGTKLELK
notes: Mouse hybridoma antibody (Balb/c immunisation); also called anti-NKp46 (NKp46-3)
B2: CD19-F18-NKp46-1 (bispecific antibody)
chain 1: not shown
chain 2: not shown
chain 3: DIQMTQTTSSLSASLGDRVTISCRASQDISNYLNWYQQKPDGTVKLLIYYTSRLHSGVPSRFSGSGSGTDYSLTINNLEQEDIATYFCQQGNTRPWTFGGGTKLEIKASTKGPSVFPLAPSSKSTSGGTAALGCLVKDYFPEPVTVSWNSGALTSGVHTFPAVLQSSGLYSLSSVVTVPSSSLGTQTYICNVNHKPSNTKVDKRVEPKSCDKTH
B3: CD19-F19-NKp46-1 (bispecific antibody, human IgG1, kappa)
chain 1: not shown
chain 2: not shown
chain 3: B2 chain 3
B4: CD19-F20-NKp46-1 (bispecific antibody, human IgG1, kappa)
chain 1: not shown
chain 2: not shown
chain 3: B2 chain 3

Key:
human NKp46 = molecular target: T1, human NKp46 (human, UniProt O76036 22-304); assay: flow cytometry screen of Example 1 on a cell line expressing human NKp46
T1 construct: The screen used a cell line expressing 'the human NKp46 construct' at the cell surface; In the lysis assays NKp46 is on fresh human NK cells; also called huNKp46; NKp46 receptor
T1 sequence (O76036 22-304 Q82K limits assumed): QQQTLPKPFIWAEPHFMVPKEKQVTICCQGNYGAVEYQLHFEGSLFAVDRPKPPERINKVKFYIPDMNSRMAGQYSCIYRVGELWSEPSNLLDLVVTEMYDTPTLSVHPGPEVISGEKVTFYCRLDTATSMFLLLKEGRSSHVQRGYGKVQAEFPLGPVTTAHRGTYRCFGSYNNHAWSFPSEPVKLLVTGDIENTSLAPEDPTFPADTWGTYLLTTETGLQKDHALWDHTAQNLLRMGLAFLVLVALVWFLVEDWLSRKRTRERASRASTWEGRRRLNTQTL
Experimental: Primary screen: Supematant (SN) of growing clones were tested in a primary screen by flow cytometry using a cell line expressing the human NKp46 construct at the cell surface.

CD19 = molecular target: T2, CD19 (UniProt P15391 20-556, limits assumed); assay: cell-based or functional assay
T2 sequence (looked up): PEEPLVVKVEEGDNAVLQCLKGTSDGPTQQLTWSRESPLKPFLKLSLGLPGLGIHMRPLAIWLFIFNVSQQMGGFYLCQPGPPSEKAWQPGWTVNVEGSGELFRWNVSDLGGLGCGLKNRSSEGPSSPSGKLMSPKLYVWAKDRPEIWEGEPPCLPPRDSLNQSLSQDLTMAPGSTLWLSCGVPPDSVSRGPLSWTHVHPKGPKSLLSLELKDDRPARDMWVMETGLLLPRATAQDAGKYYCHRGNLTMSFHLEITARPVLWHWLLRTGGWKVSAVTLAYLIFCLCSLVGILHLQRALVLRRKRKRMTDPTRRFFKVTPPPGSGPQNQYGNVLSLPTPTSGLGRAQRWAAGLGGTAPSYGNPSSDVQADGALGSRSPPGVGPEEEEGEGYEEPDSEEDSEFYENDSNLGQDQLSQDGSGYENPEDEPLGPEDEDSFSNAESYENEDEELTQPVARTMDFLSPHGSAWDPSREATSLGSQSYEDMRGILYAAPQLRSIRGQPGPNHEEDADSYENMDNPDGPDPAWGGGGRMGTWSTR

Row | Binder | binding result (human NKp46) | EC50 of Daudi target cell lysis by NK cells (4-h 51Cr-release assay) (CD19) [picomolar]
1 | B1 | binds | 
2 | B2 |  | ~1
3 | B3 |  | ~1
4 | B4 |  | ~1
